Assay results as given in patent US20260234236A1 (INTERVET, published 2026).

T1: Recombinant canine IL-4 (R&D Systems, Catalog: 752-CL/CF) (canine, UniProt O77762 25-132)
T1 sequence (looked up): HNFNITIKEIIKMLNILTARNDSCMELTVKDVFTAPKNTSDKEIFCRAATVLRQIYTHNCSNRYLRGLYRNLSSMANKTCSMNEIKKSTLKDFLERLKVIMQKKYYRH

T2: Canine IL-4 with C-terminal Avi-HIS tag (canine, biotin label when loaded on SA biosensors (Example 4); site not stated)
T2 construct: also called cIL-4; biotinylated avitag-cIL-4
T2 chain: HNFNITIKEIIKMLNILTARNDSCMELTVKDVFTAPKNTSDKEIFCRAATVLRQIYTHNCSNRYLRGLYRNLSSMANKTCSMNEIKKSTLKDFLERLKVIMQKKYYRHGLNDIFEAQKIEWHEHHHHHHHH

T3: Canine IL-13 with C-terminal Avi-HIS tag (canine, biotin label when loaded on SA biosensors (Example 4); site not stated)
T3 construct: also called cIL-13; biotinylated avitag-cIL13
T3 chain: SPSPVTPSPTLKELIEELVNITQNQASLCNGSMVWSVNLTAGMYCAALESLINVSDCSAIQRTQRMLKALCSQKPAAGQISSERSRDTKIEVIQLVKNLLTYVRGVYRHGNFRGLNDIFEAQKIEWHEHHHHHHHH


Tests used:
[1] = molecular target: T1, Recombinant canine IL-4 (R&D Systems, …); test: cell-based or functional assay
[2] = molecular target: T2, Canine IL-4 with C-terminal Avi-HIS tag; test: BLI (OCTET HTX); biotin-mAb on SA biosensors, cIL-4 in solution; 1:1 model
Description: Selected scFv specific to cIL-4 or cIL-13 were converted into full length canine IgG mAbs and tested for binding by OCTET. All kinetics measurements were performed by OCTET HTX using SA biosensors and Data Acquisition 12.0 software. First, each biotin-labeled full-length anti-canine IL-4 or anti-canine IL-13 mAb, at a concentration of 5 μg/mL, were loaded onto the pre-rehydrated SA biosensors until binding signal change ascended to a […] threshold for all channels from the step start or for a maximum of 1200s to insure equal loading density. Second, the biosensors were placed into OCTET Kinetics Buffer (PBS+0.02% Tween20, 0.1% BSA) for the blocking phase for 60s. Third, for the association phase, full-length anti-canine IL-4 mAb or anti-canine IL-13 mAb loaded biosensors were placed into 2-fold serial dilutions from 1000 nM down to 15.6 nM of cIL-4 or cIL-13, respectively, in OCTET Kinetics Buffer for 60s. The last well was buffer alone and that sensor was used for reference sensor subtraction. Finally, the biosensors were placed into OCTET Kinetics Buffer for the dissociation phase for 180s. Analysis was performed using Data Analysis 12.0 software and curves were fitted using a 1:1 binding model.

[3] = molecular target: T3, Canine IL-13 with C-terminal Avi-HIS tag; test: BLI (OCTET HTX); biotin-cIL-13 on SA biosensors, scFv in solution; 1:1 model
Description: The in vitro binding of anti-canine IL-4 scFv and IL-13 scFv to canine IL-4 and canine IL-13, respectively, was determined by OCTET HTX using SA biosensors and Data Acquisition 12.0 software. First, biotin-labeled antigen (cIL-4 or cIL-13) was loaded onto the pre-rehydrated SA biosensors for 60 seconds (60s) at a concentration of 5 μg/mL. Second, the biosensors were placed into the OCTET Kinetics Buffer (PBS+0.02% Tween20, 0.1% BSA) for the blocking phase for 120s. Third, for the association phase, cIL-4 or cIL-13 antigen loaded biosensors were placed into 2-fold serial dilutions from 500 nM down to 7.8 nM of anti-cIL-4 or anti-cIL-13 scFvs, respectively, in OCTET Kinetics Buffer for 60s. The last well was buffer alone and that sensor was used for reference sensor subtraction. Finally, the biosensors were placed into OCTET Kinetics Buffer for the dissociation phase for 300s. The analysis was performed using Data Analysis 12.0 software and curves were fitted using a 1:1 binding model.

Row | Binder | IL-4 IC50 (nM); inhibition of canine IL-4 mediated STAT6 phosphorylation in DH82 cells [1] [nM] | Kd [2] [nM] | koff [2] [s⁻¹] | kon [2] [M⁻¹ s⁻¹] | Kd [3] [nM] | koff [3] [s⁻¹] | kon [3] [M⁻¹ s⁻¹]
1 | IL4-P4-1G3VH-cIgGB/IL4-P4-1G3VL-cCL (antibody, V domains shown, Full-length canine IgG-B) VH: EVQLVESGGDLVKPGGSLRLSCVASGFTFSSYDMDWVRQAPGKGLEWLSEISTNGDRTHYADAVKGRFAISRDNAKNTVYLQMNSLRAEDTAIYYCVRDGYEYLAFDYWGQGTLVTVSS VL: QSVLNQLPSLSMNMGETATFTCEGDNIGHKYVNWYQQKPGQAPVLTIYEDNKRPSGIPERFSGSNSGNTATLTISGARAEDEADYYCESEVSTGIVFGGGTHLTVLG | 8.31 | 1.51 | 0.00243 | 1.61e+06 |  |  | 
2 | IL13 P3-1 B4 scFv (scFv, scFv purified from E. coli periplasm on Ni-NTA) scFv: SYVLTQSPSVSGSLGQTVTISCSGTTIGVVGANWYQQLPGKAPKLLVHSDGGRLSGVPDRFSGSESGNSAALTITGLQAEDEADYYCQSFDTTLGYVFGSGTQLTILGGGSSRSSSSGGGGSGGGGELTLQESGPGLVKPSQTLSLTCVVSGGSVTSNYYWNWIRQRPGRGLEWMGYWTGSTNYNPAFQGRISITADTAKNHFSLQLTSMTTEDTAVYYCARASTWLHGMDFWGHGTSLFVSSESPSPPNLTSGQAGQ |  |  |  |  | 13.1 | 0.00224 | 320000
3 | IL4-P3-1D7VH-cIgGB/IL4-P3-1D7VL-cCL (antibody, V domains shown, Full-length canine IgG-B; also called IL4-P3-1D7VH-cIgGB/IL4-P3-D7VL-cCL) VH: EVQLVQSGGDLVKPGGSLRLSCVASGFAFNGYDMDWVRLAPGKGLQWLSEISSSGSPTYYADAVEGRFTISRDNAKNTLYLQMDSLRAEDTAVYYCARAGEYTYGYEGYYFDYWGQGTLVTVSS VL: QSMLTQPASVSGSLGQRVAISCSGSTNNIGIFGATWYQHLPGKAPKFLLYSDGNRPSGVPDRFSGSDSGNSVTLMITALQAEDEADYYCQSFDTTLGAYVFGSGTQLTILG | 37.6 | 2.01 | 0.00226 | 1.12e+06 |  |  | 
4 | IL4-P3-1B10VH-cIgGB/IL4-P3-1B10VL-cCL (antibody, V domains shown) VH: EVQLVESGGDLVKPGGSLRLSCVASGFTFSNYDMSWVRQAPGKGLQWVSTISYDGNNTYYSDAVKGRFTISRDNARNTLYLQMNSLRAEDTAVYYCAKEFDIPWDNFDYWGQGTLVTVSS VL: QSVLTQPTSVSAALGQRVTISCTGSNANIGSVYDVQWYQQLPGKSPKTIIYGNTHRPSGVPVRFSGSKSGSTATLTITGIQAEDEADYYCQSYDATLHYVFGSGTQLTVLG | 87.8 |  |  |  |  |  | 
5 | IL4-P3-1B9VH-cIgGB/IL4-P3-1B9VL-cCL (antibody, V domains shown, Full-length canine IgG-B) VH: ELQLVELGGDLVKPGGSLRLSCVASGFTFSSYGMSWVRQSPGKGLQWVADISSSGSTYYADAVKGRFTISRDNAKSTLYLQMNSLRAEDTAVYYCAKAGYGSYYDFGMDYWGHGTSVFVSS VL: QAVLTQPASVSAALGQRVTISCTGTATNVGGGYDVQWYQQFPGRPPKTIIYGNYNRPSGVPDRFSASTSGTTATLTITGIQVADEADYYCQSFDTTFNGHVFGAGTQLTILG | 3.77 | 0.0635 | 2.11e-05 | 212000 |  |  | 
6 | IL 13 P3-1C6 scFv (scFv, scFv purified from E. coli periplasm on Ni-NTA; also called IL13 1C6) scFv: QSVLTQPASVSGSLGQRVTISCSGRTNNIGYFGANWYQQVPGKAPKLLVSSYGNRPSGVPDRFSASNSANSATLTITGLQAEDEADYYCQSFDTTLGAVVFGGGTQLTVLGGGSSRSSSSGGGGSGGGGELTLQESGPGLVKPSQTLSLTCVVSGGSVTNTYEWDWIRQRPGRGLEWMGSWTDNTWYNPAFQGRISITADTAKNQLSLQLSSVTTGDTAVYFCARWTKRWGYDYWGQGTLVTVSSASTTAPSVTSGQAGQ |  |  |  |  | 45.2 | 0.0107 | 304000

The next lines start with the values.

Row | IL-4 IC50 (nM); inhibition of canine IL-4 mediated STAT6 phosphorylation in DH82 cells [1] [nM] | Kd [2] [nM] | koff [2] [s⁻¹] | kon [2] [M⁻¹ s⁻¹] | Kd [3] [nM] | koff [3] [s⁻¹] | kon [3] [M⁻¹ s⁻¹] | Binder
7 | 4.24 |  |  |  |  |  |  | IL4-P4A-1A4VH-cIgGB/IL4-P4A-1A4VL-cCL (antibody, V domains shown) VH: EVQLVESGGDLVKPGGSLRLSCVASGFNFSRYSMSWVRQAPEKGLQLVAAVNSGGSRTWYADAVQGRFTVSRDNAKNTLFLEMSSLKLEDTAMYYCAKDLWSTTIAEYDYWGQGTLVTVSS VL: SYVLSQPPSVSVTPSETAHITCGGNNIGSKYVQWIRQSAGQAPVTIIYGNTNRPTGIPERFSGANSGNTATLTISGVLAEDEADYYCQVGDTDTTVFGGGTHLTVL
8 | 5.41 | 10.5 | 0.0189 | 1.8e+06 |  |  |  | IL4-P3-1C4VH-cIgGB/IL4-P3-1C4VL-cCL (antibody, V domains shown, Full-length canine IgG-B; also called IL4 P3-1 C4 5LC) VH: EVPLVESGGDLVKPGGSLRISCVASGITFNNDDMGWVRQAPGKGLQWLAEISSSGTSTYYADAVKGRFTISRDNAKNTVYLQMNSLKAEDTGVYYCVGEDGYMALGFWGQGTLVTVSS VL: QAVLNQPASVSGSLGQRVTISCSGSTNNIGVVGASWYQQFPGKAPKLLVYSDGDRPSGVPDRFSGSNSGYSDTLTITGLQAEDEADYYCQSFDTTLNAYVFGSGTQLTVLG
9 | 0.58 | 0.305 | 0.000114 | 374000 |  |  |  | IL4-P4A-1F10VH-cIgGB/IL4-P4A-1F10VL-cCL (antibody, V domains shown, Full-length canine IgG-B; also called IL4-1F10; IL4 1F10) VH: EVQLVQSGGDLVKPAGSLRLSCVASGFTFNSYAMSWVRQAPGKGLQWVAGINSGGSTTTYADAVKGRFTISRDNAKNTLYLQMNSLRAEDTAVYYCAKDQNSYYPSDTFEYWGQGTLVTVSS VL: QTVVTQEPSLSVSPGGTVTLTCGLSSGSVSTGNYPGWYQQTQGRAPRSIIYDTNSRPSGVPDRFSGSISGNKAVLTITGAQPEDEADYYCSLYTGIAYTDVVFGGGTHLTVLG
10 |  |  |  |  | 77.4 | 0.00192 | 29600 | IL13 P3-1 C2 scFv (scFv, scFv purified from E. coli periplasm on Ni-NTA) scFv: QAVLNQPASVSGSLGQRVTISCSGSSSNIGRGFVGWYQQLPGTRPKTLIYGDTFRPSGVPDRFFGSRSGSTATLTISGLQAEDEADYYCSTWDDSLAALLFGGGTHLTVLGGGSSRSSFSGGGGSGGGGEVQLVESGGDLVKPGGSLRLSCAASGFTFTDYDMSWVRQAPGKGLQWVATTSNGGSGTYYSDAVKGRFTISRDNAKNTLYLEMNRLRAEDTAVYYCVKEIYPASIDFWGLGTLVTVSSASTTAPSVTSGQAGQ
11 | 0.56 |  |  |  |  |  |  | IL4-P3-1A6VH-cIgGB/IL4-P3-1A6VL-cCL (antibody, V domains shown) VH: EVPLVESGGDLVKPGGSLRLSCVASGFTFHNYDLSWIRQLPGGGLQWVADIDKSGLTFYADAVKGRFTISRDNAKNTLYLQMNSLRAEDTAVYYCATWPLGSWYTETFEYWGQGTLVTVSS VL: QPVLTQPPSVSAALGQRVTISCNTNIGSPYDVQWYQQLPGKSPKTIIYGNSNRPSGVPVRFSGSKSGSTATLTIAGIQAEDEADYYCQSYDDNVDGYVFGSGTQLTVLG
12 |  |  |  |  | 158 | 0.0158 | 104000 | IL13 P3-1 G5 scFv (scFv, scFv purified from E. coli periplasm on Ni-NTA) scFv: SYELTQPPSVSVSLGQTATISCSGESLSKYYAQWFQQKAGQAPVLVIYQDTERPSGIPDRFSGSSSGNTHTLTISGARAEDEADYYCESAISPDTYVFGSGTQLTILGGGSSRSSSSGGGGSGGGGEVQLVQSGGDLVKPGGTLRLSCVASGFTFSSYDMSWVRQSPGKGLQWVAAIWNDGSNTEYADAVKGRFTVSRDNAKNTVYLEMNSLRAEDTAMYYCVKEGPSYGYFDYWGQGTLVTVSSASTTAPSVTSGQAGQ
13 | 30 | 0.622 | 0.000809 | 1.3e+06 |  |  |  | IL4-P3-1B10VHm-cIgGB/IL4-P3-1B10VL-cCL (antibody, V domains shown, Full-length canine IgG-B; also called IL4 P3-1 B10m) VH: EVQLVESGGDLVKPGGSLRLSCVASGFTFSNYDMSWVRQAPGKGLQWVSTISYDGQNTYYSDAVKGRFTISRDNARNTLYLQMNSLRAEDTAVYYCAKEFDIPWDNFDYWGQGTLVTVSS VL: QSVLTQPTSVSAALGQRVTISCTGSNANIGSVYDVQWYQQLPGKSPKTIIYGNTHRPSGVPVRFSGSKSGSTATLTITGIQAEDEADYYCQSYDATLHYVFGSGTQLTVLG
